Laboratory results from paper PMC2804858.

Target: Mcm2-7 hexamer (budding yeast (endogenous in yeast extract) | budding yeast) (UniProt P29469)
Test: negative-stain electron microscopy

stoichiometry N: 2 hexamers
Substance: Mcm2-7 hexamer, P29469 1-868; P24279 1-971; P30665 1-933; P29496 1-775; P53091 1-1017; P38132 1-845
